The results in this text go back to patent US20160333101A1 (GENOR BIOPHARMA, published 2016).

To fix the notation:
B1: G12 (antibody, human IgG2, kappa, V domains shown)
VH: QVQLVQSGAELKKPGASVKLSCKASGYTFTTYWLQWVRQAPGQGLEWMGAIYPGPGNTKYTQKFKDRFTITADTSKSTAYMQLNSLKSEDSAVYYCARRGSRRGIAYWGQGTLVTVSA
VL: NIVLTQSPASLSVSLGQRATISCRASESVDSYGRSFMHWYQQRPGQAPKLLIYLASNLESGVPARFSGSGSRTDFTLTISSVEAEDEATYYCQQDNEDPYTFGGGTKLEIKG
B2: G4 (antibody, human IgG2, kappa, V domains shown)
VH: QVQLVQSGAELKKPGASVKLSCKASGYTFTTYWLQWVRQAPGQGLEWMGAIYPGPGNTKYTQKFKDRFTITADKSKSTAYMQLNSLKSEDSAVYYCARRGSRRGIAYWGQGTLVTVSA
VL: NIVLTQSPASLSVSLGQRATISCRASESVDSYGRSFMHWYQQRPGQAPKLLIYLASNLESGVPARFSGSGSRTDFTLTISSVEAEDEATYYCQQDNEDPYTFGGGTKLEIKG
B3: G10 (antibody, human IgG2, kappa, V domains shown)
VH: QVQLVQSGAELKKPGASVKLSCKASGYTFTTYWLQWVRQAPGQGLEWMGAIYPGPGNTKYTQKFKDRFTITADTSKSTAYMQLNSLKSEDSAVYYCARRGSRRGIAYWGQGTLVTVSA
VL: NIVLTQSPASLSVSLGQRATISCRASESVDSYGRSFMHWYQQRPGQAPRLLIYLASNLESGVPARFSGSGSRTDFTLTISSVEAEDEATYYCQQDNEDPYTFGGGTKLEIKG
B4: G15 (antibody, human IgG2, kappa, V domains shown)
VH: QVQLVQSGAEVKKPGASVKVSCKASGYTFTTYWLQWVRQAPGQGLEWMGAIYPGPGNTKYTQKFKDRVTITADESTSTAYMELSSLRSEDTAVYYCARRGSRRGIAYWGQGTLVTVSA
VL: NIVLTQSPASLSVSLGQRATISCRASESVDSYGRSFMHWYQQRPGQAPRLLIYLASNLESGVPARFSGSGSRTDFTLTISSVEAEDEATYYCQQDNEDPYTFGGGTKLEIKG
B5: 114-6.6.29 (antibody, V domains shown)
VH: DVKLVESGGGLVKPGGSLKLSCAASGFTFSSYTMSWVRQTPEKRLEWVATISSGGSYTYYPDSVKGRFTISRDNAKNTLYLQMSSLKSEDTAMYYCTRDWDYYGTTYVGGYAMDYWGQGTSVTVSS
VL: DVLMTQTPLSLPVSLGDQASISCRSSQSIVHSNGNTYLEWYLQKPGQSPKLLIYKVSNRFSGVPDRFSGSGSGTDFTLKISRVEAEDLGVYYCFQGSHVPWTFGGGTKLEIK
B6: 114-7.19.12 (antibody, V domains shown)
VH: QVQLQQSGAELASPGASVKLSCKASGYTFTTYWLQWVKQRPGQGLEWIGAIYPGPGNTKYTQKFKDKATLTADKSASTAYMQLNSLTSEDSAVYYCARRGSRRGIAYWGQGTLVTVSA
VL: NIVLTQSPASLAVSLGQRATISCRASESVDSYGRSFMHWYQQRPGQPPTLLIYLASNLESGVPVRFSGSGSRTDFTLTIDPVEADDAATYYCQQDNEDPYTFGGGTKLEIK
B7: 114-7.37.26 (antibody, V domains shown)
VH: QVQLQQSGAELASPGASVKLSCKTSGYTFTTYWLQWVKQRPGQGLEWIGAIYPGPGNTKYTQKFKDKATLTADKSASTAYMQLSSLTSEDSAVYYCARRGSRRGIAYWGQGTLVTVSA
VL: NIVLTQSPASLAVSLGQRATISCRASESVDSYGRSFMHWYQQRPGQPPTLLIYLASNLESGVPARFSGSGSRTDFTLTIDPVEADDAATYYCQQDNEDPYTFGGGTKLEIK
B8: 114-7.38.48 (antibody, V domains shown)
VH: DVQLQESGPDLVKPSQSLSLTCTVTGYSITSAYSWHWIRQFPGNKLEWMGYIHFSGVTNYNPSLKSRISITRDASKNQFFLQLSSVTTEDTATYYCATRRETGFTYWGQGTLVTVSA
VL: DIVLTQSPATLSVTPGDSVSLSCRASQSISKNLHWYQQKSHESPRLLIKYASQSISGIPSRFSGSGSGTDFTLSINSVETEDFGIYFCQQINSWPLTFGAGTKLELK
B9: 114-2.222 (antibody, V domains shown)
VH: EVQLQQSGAELVKPGASVKLSCTTSGFNIKATYIHWVQQRPEQGLEWIGRIDPANGNTKYDSKFQGKATITADTSSNTAYLQLSSLTSEDTAVYFCARSLHYYVFFDYWGQGTTLTVSS
VL: DIQMTQTTSSLSASLGDRVTISCSASQGISNYLNWYQQKPDGTVKLLIYSTSSLHSGVPSRFSGSGSGTDYSLTISSLEPEDIATYYCQQYSKLPLTFGAGTKLELKR
B10: 114-2.402 (antibody, V domains shown)
VH: EVQLQQSGTELVKPGASVKLSCTLFGFNIKATYMHWVRQRPEQGLEWIGRIDPPNGNTKYDPKFQDKATIKVDTSSNTAYLQLSSLTSEDTAVYYCAREFNRYDVWLAYWGQGTLVTVSA
VL: DIQMTQTTSSLSASLGDRVTISCSASQGVSNYLNWYQQKPDGTVKLLIYSTSSLHSGVPSRFSGSGSGTDYSLTISNLEPEDVATYYCQQYSKLPFTFGSGTKLEIKR
B11: 114-5.9.4 (antibody, V domains shown)
VH: EVQLQQSGAELVKPGASVKLSCTASGFNLKGTYIHWVKQRPGQGLEWIGRIDPANANTKYDPKFQGKATIRTDTSSNTAYLQLSSLTSEDTAVYFCSSPSGHYDVWFAYWGQGTLVTVSP
VL: DIQMTQPTSSLSASLGDTVTISCSASQDISNYLNWYQQKPDGTLKLLIYYTSSLHSGVPSRFSGSGSGTDYSLTISNLEPEDIATYYCQQFSKLPLTFGAGTKLELKR
B12: 114-5.7.14 (antibody, V domains shown)
VH: EVQLQQSGAELVKPGASVKLSCTASGFKIKDTYMHWVRQRPEQGLEWIGRIDSANGNIKYDPKFQGKATITADTSSKTAYLHLSSLTFEDTAVYYCSRPKSNYDFWLPYWGQGTLVTVSA
VL: DIQMTQTTSSLSASLGDRVTISCSASQGISNYLNWYQQKPDGTVKLLIYYTSSLHSGVPSRFSGSGSGTDYSLTISNLEPEDIATYYCQQYSKLPLTFGAGTKLELK
B13: pFL249-L10u (scFv)
scFv: QVQLQQSGAELASPGASVKLSCKASGYTFTTYWLQWVKQRPGQGLEWIGAIYPGPGNTKYTQKFKDKATLTADKSASTAYMQLNSLTSEDSAVYYCARRGSRRGIAYWGQGTLVTVSAASSGGGGSGGGGSGGGGSSNIVLTQSPASLSVSLGQRATISCRASESVDSYGRSFMHWYQQRPGQAPKLLIYLASNLESGVPARFSGSGSRTDFTLTISSVEAEDEATYYCQQDNEDPYTFGGGTKLEIK
notes: scFv in IPTG-induced E. coli supernatant, screened by ELISA; also called L10u scFv clone of the VL library; not shown: c-myc tag and his tag of vector pFL249
B14: pFL249-L37 (scFv)
scFv: QVQLQQSGAELASPGASVKLSCKASGYTFTTYWLQWVKQRPGQGLEWIGAIYPGPGNTKYTQKFKDKATLTADKSASTAYMQLNSLTSEDSAVYYCARRGSRRGIAYWGQGTLVTVSAASSGGGGSGGGGSGGGGSSNIVLTQSPASLSVSLGQRATISCRASESVDSYGRSFMHWYQQKPGQAPKLLIYLASNLESGVPSRFSGSGSRTDFTLTISAVEAEDAATYYCQQDNEDPYTFGGGTKLEIK
notes: scFv in IPTG-induced E. coli supernatant, screened by ELISA; also called L37 scFv clone of the VL library; not shown: c-myc tag and his tag of vector pFL249
B15: pFL249-L37u (scFv)
scFv: QVQLQQSGAELASPGASVKLSCKASGYTFTTYWLQWVKQRPGQGLEWIGAIYPGPGNTKYTQKFKDKATLTADKSASTAYMQLNSLTSEDSAVYYCARRGSRRGIAYWGQGTLVTVSAASSGGGGSGGGGSGGGGSSNIVLTQSPASLSVSLGQRATISCRASESVDSYGRSFMHWYQQKPGQAPKLLIYLASNLESGVPSRFSGSGSRTDFTLTISRVEAEDAATYYCQQDNEDPYTFGGGTKLEIK
notes: scFv in IPTG-induced E. coli supernatant, screened by ELISA; also called L37u scFv clone of the VL library; not shown: c-myc tag and his tag of vector pFL249
B16: pFL249-L10 (scFv)
scFv: QVQLQQSGAELASPGASVKLSCKASGYTFTTYWLQWVKQRPGQGLEWIGAIYPGPGNTKYTQKFKDKATLTADKSASTAYMQLNSLTSEDSAVYYCARRGSRRGIAYWGQGTLVTVSAASSGGGGSGGGGSGGGGSSNIVLTQSPASLSVSLGQRATISCRASESVDSYGRSFMHWYQQRPGQAPRLLIYLASNLESGVPARFSGSGSRTDFTLTISSVEAEDEATYYCQQDNEDPYTFGGGTKLEIK
notes: scFv in IPTG-induced E. coli supernatant, screened by ELISA; also called L10 scFv clone of the VL library; not shown: c-myc tag and his tag of vector pFL249

The first experiment has as its target T1, recombinant human RANKL (human, UniProt O14788 136-317).
T1 sequence: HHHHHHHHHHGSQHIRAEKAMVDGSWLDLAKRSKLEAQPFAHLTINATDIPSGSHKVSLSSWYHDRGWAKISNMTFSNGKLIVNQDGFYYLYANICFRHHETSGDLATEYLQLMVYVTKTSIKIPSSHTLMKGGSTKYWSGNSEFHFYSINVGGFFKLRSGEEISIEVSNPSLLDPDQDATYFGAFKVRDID
Kind of experiment: cell-based or functional assay.
For the molecule B1, the “IC50 (ng/ml) in RAW264.7 cells, osteoclast differentiation induced by RANKL” value was around 1060 ng/mL.

Consider B2, for which the “IC50 (ng/ml) in RAW264.7 cells, osteoclast differentiation induced by RANKL” value is around 1080 ng/mL.

In the case of B3, the “IC50 (ng/ml) in RAW264.7 cells, osteoclast differentiation induced by RANKL” value was determined as 695 ng/mL.

A further experiment concerns the target T1, recombinant human RANKL. The experiment is described as follows: cell-based or functional assay. This is another data set of the same source.
In the case of B4, the “IC50 for inhibiting hRANKL induced RAW264.7 cell differentiation” value was found to be 0.257 µg/mL.

The target in a further experiment is T1, recombinant human RANKL. Kind of experiment: cell-based or functional assay. The source holds these as a separate data set.
As for B5, the “EC50 value (ng/ml), inhibiting the cellular differentiation of RAW264.7 induced by human RANKL” value turned out to be 799 ng/mL.

As to B6, the “EC50 value (ng/ml), inhibiting the cellular differentiation of RAW264.7 induced by human RANKL” value is 267 ng/mL.

Regarding B7, the “EC50 value (ng/ml), inhibiting the cellular differentiation of RAW264.7 induced by human RANKL” value turned out to be 470 ng/mL.

On to B8, for which the “EC50 value (ng/ml), inhibiting the cellular differentiation of RAW264.7 induced by human RANKL” value was found to be 585 ng/mL.

For the molecule B9, the “EC50 value (ng/ml), inhibiting the cellular differentiation of RAW264.7 induced by human RANKL” value was 311 ng/mL.

As for B10, the “EC50 value (ng/ml), inhibiting the cellular differentiation of RAW264.7 induced by human RANKL” value stood at 396 ng/mL.

Turning to B11, the “EC50 value (ng/ml), inhibiting the cellular differentiation of RAW264.7 induced by human RANKL” value came out at 340 ng/mL.

For B12, the “EC50 value (ng/ml), inhibiting the cellular differentiation of RAW264.7 induced by human RANKL” value was determined as 315 ng/mL.

Another experiment concerns the target T1, recombinant human RANKL. The experiment is described as follows: ELISA, scFv supernatant on coated hRANKL, anti-c-myc-HRP. On the procedure: For VH, VL libraries, 5×96 clones selected randomly from SOBAG cloning plates obtained in the third round and the fourth round are vaccinated on 96-deep-well plates respectively, 400 μl 2×YT-AG medium is contained in each well, the bacterial liquid is cultivated with shaking, at 30° C., 200 rpm overnight. The next day, the bacterial liquid on the deep-well plate is transferred by 1:50 to a new 96-deep-well plate containing 400 μl 2×YT-AG fresh medium. The bacterial liquid is cultivated with shaking at 37° C., 200 rpm until OD600 is about 0.8 (for about 3 hours). The bacterial is collected through 1500 g centrifugation for 10 minutes, the supernatant is removed, and the bacterial is resuspended with 400 μl of sterile fresh 2×YT-AI (I refers to IPTG, with a final concentration of […]) culture medium, the suspension is cultivated with shaking at 30° C., 200 rpm overnight (that is, the expression of scFv is induced overnight). The expressed inductively scFv supernatant on the deep-well plate is centrifuged at 3000 g for 20 min, 300 μl supernatant is transferred to a clean 96-well cell plate for backup.
The plates are washed three times with PBST (containing 0.05% Tween 20). The plates are closed with blocking solution (PBS solution containing 2% (WN) of BSA) for 1˜1.5 hours at room temperature. […] The closed microtiter plate is incubated for 2 hours at room temperature, washed three times with PBST.
B13: the binding result is “binds”.

For the molecule B14, the binding result is listed as “binds”.

In the case of B15, the binding result is “binds”.

B16: the binding result is “binds”.
